From publication PMC3960220, “1,2-β-Oligoglucan Phosphorylase from Listeria innocua” (PLoS ONE, 2014)

Test system: O=P(O)(O)O[C@H]1O[C@H](CO)[C@@H](O)[C@H](O)[C@H]1O
Assay: phosphate release, Lowry and Lopez molybdate method, A700
Type: biochemical, Listeria innocua
Settings: synthetic reaction (donor, up to 10 mM), co-substrate 10 mM Sop2, 100 mM MOPS-NaOH pH 7.5, 30°C
Excerpt: phosphate release, Lowry and Lopez molybdate method, A700 on Lin1839r (recombinant Lin1839 protein; 1,2-β-oligoglucan phosphorylase)

“Lin1839r (recombinant Lin1839 protein; 1,2-β-oligoglucan phosphorylase) (Listeria innocua Clip11262; T2A)” showed a Km of 1200 ± 200 µM, a kcat of 43 ± 2 s⁻¹ and a kcat/Km of 34000 ± 4000 M⁻¹ s⁻¹.
